We go through two substances from paper PMC3796514.

In experiment [1] the target is HapRV2G (wild type functional HapR, glycine at position 39), N-terminal 6X His fusion (Vibrio cholerae). As to the kind of experiment: SEC.
For experiment [2], the target named is HapRV2G-E117K (HapR natural variant with lysine at position 117 in the dimerization domain), N-terminal 6X His fusion (Vibrio cholerae). As to the kind of experiment: SEC. On the technique in general: Size exclusion chromatography separates by hydrodynamic size, large species first.

As for “HapRV2G (wild type functional HapR, glycine at position 39), N-terminal 6X His fusion (natural protein)”, the stoichiometry N in experiment [1] was determined as 2. The substance “HapRV2G-E117K (HapR natural variant with lysine at position 117 in the dimerization domain), N-terminal 6X His fusion (natural protein)” gave a stoichiometry N in experiment [2] of 2.

In general, stoichiometry N refers to the number of molecules, sites or subunits per partner or assembly.
